The nature of the series: self-splicing fitness, log relative to wild type (ln ratio); higher = more splicing; Tetrahymena group I intron in knt gene, E. coli kanamycin selection, DiMSum; sequences stand for … in CUCUCU…GGAGGGAAAAGUUAUCAGGCAUGCACCUGGUAGCUAGUCUUUAAACCAAUAGAUUGCAUCGGUUUAAAAGGCAAGACCGUCAAAUUGCGGGAAAGGGGUCAACAGCCGUUCAGUACCAAGUCUCAGGGGAAACUUUGAGAUGGCCUUGCAAAGGGUAUGGUAAUAAGCUGACGGACAUGGUCCUAACCACGCAGCCAAGUCCUAAGUCAACAGAUCUUCUGUUGAUAUGGAUGCAGUUCACAGACUAAAUGUCGGUCGGGGAAGAUGUAUUCUUCUCAUAAGAUAUAGUCGGACCUCUCCUUAAUGGGAGCUAGCGGAUGAAGUGAUGCAACACUGGAGCCGCUGGGAACUAAUUUGUAUGCGAAAGUAUAUUGAUUAGUUUUGGAGUACUCGUGGUCG
The gist of the method: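 A randomised library covering all eight P1ex-region intron nucleotides was built with the intron in the knt kanamycin-resistance gene on pET-22b(+) and held in E. coli BL21(DE3). Cells were grown overnight at 37°C or 30°C on LB agar, with or without 25 μg/mL kanamycin, plus 100 μg/mL carbenicillin, 50 μM IPTG and 0.2% rhamnose, and pooled colonies were amplicon-sequenced on an Illumina HiSeq 2500. DiMSum fitness is the error-weighted combination of wild-type-normalised replicate fold changes, kanamycin versus none.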

± gives the uncertainty stated by the source.

In the case of UGCUAGCAAUAUUACGUCCG, the “self-splicing fitness (ln)” value (30 °C) was -0.00657 ± 0.11 and the “self-splicing fitness (ln)” value (37 °C) was 0.18 ± 0.14. On to CUCUAGCAAUAUUACGUUAA, for which the “self-splicing fitness (ln)” value (30 °C) was -2.75 ± 0.27. In the case of AGUGAGCAAUAUUACGUGAA, the “self-splicing fitness (ln)” value (30 °C) is -3.3 ± 0.36 and the “self-splicing fitness (ln)” value (37 °C) is -2.91 ± 0.19. For AAGUAGCAAUAUUACGAGUA, in that order: -1.79 ± 0.15 and -1.86 ± 0.18. For UGACAGCAAUAUUACGGAUC, in that order: -4.78 ± 0.32 and -2.21 ± 0.16. On the same counts, the results for GUCAAGCAAUAUUACGUGUU are -2.85 ± 0.089 and -1.35 ± 0.089. For UUGCAGCAAUAUUACGGGAA, the “self-splicing fitness (ln)” value is, setting by setting: (30 °C) -1.51 ± 0.12; (37 °C) 0.101 ± 0.11. As to AGGGAGCAAUAUUACGGACU, the “self-splicing fitness (ln)” value was -1.03 ± 0.16 (30 °C) and 0.483 ± 0.22 (37 °C). UACCAGCAAUAUUACGCAGU: the “self-splicing fitness (ln)” value was -4.06 ± 0.27 (30 °C) and -2.62 ± 0.18 (37 °C).

For ACAGAGCAAUAUUACGUCCG, the “self-splicing fitness (ln)” value runs as follows: (30 °C) -3.65 ± 0.21; (37 °C) -2.52 ± 0.27. On the same counts, the results for GCGAAGCAAUAUUACGUUAU are -2.2 ± 0.1 and -1.86 ± 0.11. As to UCGGAGCAAUAUUACGGUAU, the “self-splicing fitness (ln)” value was -3.24 ± 0.35 (30 °C) and -2.16 ± 0.26 (37 °C). For GGAAAGCAAUAUUACGCAGG, in that order: -2.91 ± 0.15 and -2.71 ± 0.22.

As to CAGGAGCAAUAUUACGGAGA, the “self-splicing fitness (ln)” value is -2.81 ± 0.28 (30 °C) and -2.34 ± 0.37 (37 °C). On the same counts, the results for UGGAAGCAAUAUUACGGAGG are -2.93 ± 0.27 and -0.696 ± 0.15. On the same counts, the results for UCCUAGCAAUAUUACGUGGC are -3.85 ± 0.24 and -1.78 ± 0.2. For ACAUAGCAAUAUUACGAUCC, in that order: -1.77 ± 0.15 and -0.941 ± 0.16. Turning to UGCGAGCAAUAUUACGUGCC, the “self-splicing fitness (ln)” value runs as follows: (30 °C) -3.9 ± 0.47; (37 °C) -2.55 ± 0.33. For CCCCAGCAAUAUUACGAACG, in that order: -3.44 ± 0.2 and -2.19 ± 0.18. Consider AGAGAGCAAUAUUACGCCGA, for which the “self-splicing fitness (ln)” value (37 °C) is -1.55 ± 0.43. With UCCCAGCAAUAUUACGGCUU, the “self-splicing fitness (ln)” value is, setting by setting: (30 °C) -2.62 ± 0.14; (37 °C) -1.65 ± 0.17. On the same counts, the results for UCAGAGCAAUAUUACGGUGA are -0.792 ± 0.084 and -0.193 ± 0.1. For GAGUAGCAAUAUUACGGGUG, the “self-splicing fitness (ln)” value reads like this: (30 °C) -2.78 ± 0.14; (37 °C) -1.71 ± 0.14.

Regarding GGCGAGCAAUAUUACGGCUA, the “self-splicing fitness (ln)” value is -0.343 ± 0.13 (30 °C) and 0.287 ± 0.14 (37 °C). CAGGAGCAAUAUUACGACUG: the “self-splicing fitness (ln)” value (37 °C) is -2.83 ± 0.38. Regarding CGGGAGCAAUAUUACGACUG, the “self-splicing fitness (ln)” value is -3.19 ± 0.22 (30 °C) and -1.55 ± 0.18 (37 °C).

In the case of CAGCAGCAAUAUUACGAGAU, the “self-splicing fitness (ln)” value (30 °C) was -2.65 ± 0.24 and the “self-splicing fitness (ln)” value (37 °C) was -1.71 ± 0.2.

For the sequence AUCGAGCAAUAUUACGGUGA, the “self-splicing fitness (ln)” value runs as follows: (30 °C) -2.39 ± 0.12; (37 °C) -2.25 ± 0.15. On the same counts, the results for AGCGAGCAAUAUUACGCGAU are -1.78 ± 0.25 and -2.2 ± 0.36. For GAGUAGCAAUAUUACGAUGU, in that order: -2.23 ± 0.11 and -0.716 ± 0.12.

Regarding ACUGAGCAAUAUUACGUUAU, the “self-splicing fitness (ln)” value was -3.12 ± 0.15 (30 °C) and -2.89 ± 0.2 (37 °C). Take AGGAAGCAAUAUUACGGUCU: the “self-splicing fitness (ln)” value by setting is: (30 °C) -0.784 ± 0.079; (37 °C) 0.265 ± 0.11.

With CUGAAGCAAUAUUACGAGAC, the “self-splicing fitness (ln)” value is, setting by setting: (30 °C) -0.346 ± 0.11; (37 °C) 0.35 ± 0.15. On the same counts, the results for UGAAAGCAAUAUUACGACGA are -0.661 ± 0.12 and -0.101 ± 0.12. Consider GCGGAGCAAUAUUACGCGGG, for which the “self-splicing fitness (ln)” value by setting is: (30 °C) -3.35 ± 0.38; (37 °C) -1.2 ± 0.24. Take CGUCAGCAAUAUUACGCCUU: the “self-splicing fitness (ln)” value (37 °C) was -1.94 ± 0.2. For the sequence CAGGAGCAAUAUUACGUACG, the “self-splicing fitness (ln)” value is -1.06 ± 0.088 (30 °C) and 0.312 ± 0.13 (37 °C).

On to UCGCAGCAAUAUUACGUUAA, for which the “self-splicing fitness (ln)” value (30 °C) was -2.18 ± 0.12 and the “self-splicing fitness (ln)” value (37 °C) was -1 ± 0.096. On the same counts, the results for AGUUAGCAAUAUUACGCAGU are -2.38 ± 0.23 and -2.62 ± 0.31.

The values above are taken from the supplement of paper PMC7877785.
